From paper PMC11134719 come the findings set out here.

For assay [1], the target named is angiotensin-converting enzyme 2 (ACE2) (human (endogenous in HUVECs and HMEC-1)) (UniProt Q9BYF1).
Assay [2] deals with Toll-like receptor 4 (TLR4) (human (endogenous in HUVECs and HMEC-1)) (UniProt O00206).
Chain of UniProt O00206 (O00206 24-839): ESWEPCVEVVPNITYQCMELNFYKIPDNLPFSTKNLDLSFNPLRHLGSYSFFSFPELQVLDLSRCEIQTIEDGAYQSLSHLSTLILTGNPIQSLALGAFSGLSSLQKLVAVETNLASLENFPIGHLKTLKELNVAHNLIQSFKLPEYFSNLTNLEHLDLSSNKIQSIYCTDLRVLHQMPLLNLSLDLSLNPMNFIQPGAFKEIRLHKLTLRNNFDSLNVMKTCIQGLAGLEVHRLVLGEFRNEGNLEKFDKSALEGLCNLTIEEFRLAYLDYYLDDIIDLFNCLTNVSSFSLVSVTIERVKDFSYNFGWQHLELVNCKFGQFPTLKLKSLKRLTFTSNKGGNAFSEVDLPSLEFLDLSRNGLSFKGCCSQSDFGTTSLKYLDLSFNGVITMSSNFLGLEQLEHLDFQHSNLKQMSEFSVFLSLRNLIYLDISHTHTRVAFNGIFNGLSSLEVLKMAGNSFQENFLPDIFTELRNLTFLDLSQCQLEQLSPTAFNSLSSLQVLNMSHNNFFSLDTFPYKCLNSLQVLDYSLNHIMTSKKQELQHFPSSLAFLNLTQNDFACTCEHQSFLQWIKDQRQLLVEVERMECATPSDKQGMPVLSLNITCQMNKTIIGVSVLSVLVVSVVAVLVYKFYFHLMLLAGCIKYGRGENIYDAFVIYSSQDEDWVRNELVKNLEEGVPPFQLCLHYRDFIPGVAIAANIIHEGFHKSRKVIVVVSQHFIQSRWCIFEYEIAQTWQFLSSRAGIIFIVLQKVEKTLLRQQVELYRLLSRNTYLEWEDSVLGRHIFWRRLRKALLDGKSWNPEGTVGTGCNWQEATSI

Chain of UniProt Q9BYF1 (Q9BYF1 18-805): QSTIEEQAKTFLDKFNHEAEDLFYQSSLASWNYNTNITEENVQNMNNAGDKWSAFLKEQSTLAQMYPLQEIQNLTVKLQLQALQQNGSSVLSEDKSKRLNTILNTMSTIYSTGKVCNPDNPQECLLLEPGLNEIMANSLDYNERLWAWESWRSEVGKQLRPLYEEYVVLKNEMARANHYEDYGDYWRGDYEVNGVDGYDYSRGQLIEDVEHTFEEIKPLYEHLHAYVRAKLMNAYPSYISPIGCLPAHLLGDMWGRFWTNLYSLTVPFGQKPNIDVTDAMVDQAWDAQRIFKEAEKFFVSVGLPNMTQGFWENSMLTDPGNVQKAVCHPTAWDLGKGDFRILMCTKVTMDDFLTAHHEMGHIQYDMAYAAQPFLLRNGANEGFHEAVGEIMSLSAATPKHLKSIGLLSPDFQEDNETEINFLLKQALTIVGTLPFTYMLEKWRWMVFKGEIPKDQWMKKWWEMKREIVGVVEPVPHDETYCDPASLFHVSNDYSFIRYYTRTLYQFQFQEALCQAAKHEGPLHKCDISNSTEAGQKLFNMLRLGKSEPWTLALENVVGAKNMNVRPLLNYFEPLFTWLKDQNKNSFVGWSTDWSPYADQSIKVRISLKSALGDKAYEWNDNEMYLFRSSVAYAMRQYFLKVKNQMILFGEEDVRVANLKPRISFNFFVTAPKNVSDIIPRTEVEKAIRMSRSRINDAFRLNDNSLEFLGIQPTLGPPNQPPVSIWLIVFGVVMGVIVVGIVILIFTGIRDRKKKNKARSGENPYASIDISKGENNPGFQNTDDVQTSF

Substance “2019-nCoV S1 Protein (SARS-CoV-2 Spike protein) (domain or fragment)” returned a decrease of the ACE2 surface protein level (Western blot of the cell surface fraction), 0.5 µg/mL S protein for 48 h in assay [1] of 60%. In assay [2], this substance had a TLR4 surface protein level by Western blot, fold over nontreated endothelial cells, 0.5 µg/mL S protein for 48 h of 1.7 fold and a TLR4 surface protein level by immunostaining, fold over nontreated endothelial cells, 0.5 µg/mL S protein for 48 h of 1.4 fold.
